The subject of test [1] is previously-untreated, unresectable melanoma. Description: Clinical trial A3671009, randomized multicenter Phase 3 study of tremelimumab versus chemotherapy: overall survival by baseline serum CRP category. The class given is in vivo, human. Particulars: for Median OS: tremelimumab 15 mg/kg i.v. every 90 days (Arm A) or dacarbazine/temozolomide (Arm B); for HR (hazard ratio for survival for the two treatment arms): CTLA4 blockade versus chemotherapy. As for the experimental part: Patients randomized to Arm A received intravenous tremelimumab at a dose of 15 mg/kg every 90 days for up to four doses. Patients randomized to Arm B received either dacarbazine at 1000 mg/m^2 or temozolomide at 200 mg/m^2 at the discretion of the investigator. The primary objective of the trial was to compare overall survival of patients in the two treatment arms. Objective tumor response was a secondary endpoint. In the A3671009 trial, serum CRP was measured in most patients before initiation of treatment. In the analysis described below, baseline CRP refers to the result of a CRP assay performed on serum drawn from patients up to 14 days prior randomization into the study. […] The hazard ratio of 1.48 represents a 48% improvement in overall survival in favor of patients who received CTLA4 blockade.

Another test concerns CRP. The conditions noted are these: treatment with IL-6 / IL-6 receptor inhibitor; cited from earlier work.
Where [2] appears, read: patients with baseline CRP > 1.5 ULN.
[3] abbreviates: patients with baseline CRP ≦ 1.5 ULN.

In the case of “dacarbazine or temozolomide [Chemotherapy, reference compound]”, the “Median OS” value in test [1] (setting [2]) is recorded as 6.1 months; in test [1] (setting [3]) it was 12.7 months.
In the case of tocilizumab, in the test with CRP, the “effect on CRP levels” value was “reduce CRP levels”.

B1: tremelimumab (antibody, listed as Homo sapiens)
VH: GVVQPGRSLRLSCAASGFTFSSYGMHWVRQAPGKGLEWVAVIWYDGSNKYYADSVKGRFTISRDNSKNTLYLQMNSLRAEDTAVYYCARDPRGATLYYYYYGMDVWGQGTTVTVSSASTKGPSVFPLAPCSRSTSESTAALGCLVKDYFPEPVTVSWNSGALTSGVH
VL: PSSLSASVGDRVTITCRASQSINSYLDWYQQKPGKAPKLLIYAASSLQSGVPSRFSGSGSGTDFTLTISSLQPEDFATYYCQQYYSTPFTFGPGTKVEIKRTVAAPSVFIFPPSDEQLKSGTASVVCLLNNFYPREAKV
notes: anti-CTLA4 monoclonal IgG2 antibody 11.2.1; Arm A of trial A3671009
For B1, the “HR (hazard ratio for survival for the two treatment arms)” value in test [1] (baseline CRP > 1.5 ULN, P-value 0.3076) is on record as 0.86; in test [1] (baseline CRP ≦ 1.5 ULN, P-value 0.0037) it was 1.48. The “improvement in overall survival” value in test [1] (low baseline CRP, in favor of CTLA4 blockade versus chemotherapy) was 48%. Moreover, the results for the “Median OS” value in test [1] (setting [2]) and in test [1] (setting [3]) were 6.1 months and 19.1 months, respectively. The “difference in overall survival between treatment groups” value in test [1] (patients with high baseline CRP, versus chemotherapy (FIG. 2)) was “no apparent difference”; in test [1] (patients with low baseline CRP, versus chemotherapy (FIG. 1)) it was “clinically meaningful and statistically significant difference”.

The values above are taken from patent publication US9119839B2, “Cancer treatment” (Pfizer Inc., priority 2009, dated 2015).
